# Test results from patent publication US20230212587A1, “Mutant Hydroxyphenylpyruvate Dioxygenase Polypeptide, Encoding Gene Thereof and Use Therefor” (Beijing Dabeinong Biotechnology Co., Ltd., priority 2019, published 2023).
# Changes are numbered by the printed parent chain. Names and notes keep the numbering of the source.
# B1: BdHPPD-02: native Brachypodium distachyon HPPD, SEQ ID NO: 45 (protein)
# chain: MPPPATTAAPAAAAVTPEHARPPRRVARVNPRSDRFSALSFHHVELWCADAASAAGRFSFALGAPPAARSDLSTGNSAHASILLRSGSLAFLFTAPYAPSPASDSAASIPSFSASAARQFTADHGGLAVRAVALRVSSASDAFHASVSAGARPSFPPADLGQGFALAEVELYGDVVLRFISHPDENTEIPFLPGFESVSNPGASTYGLTRFDHVVGNVPSLAPVAAYIAGFTGFHEFAEFTAEDVGTADSGLNSVVLANNSERVLLPLNEPVHGTKRRSQIQTYLDHHGGPGVQHIALASDDVLRTLREMRARSAMGGFEFLAPPPPNYYDGVRRRAGDVLSEAQIKECQELGVLVDRDDQGVLLQIFTKPVGDRPTLFLEMIQRIGCMEKDEIGQEQQKGGCGGFGKGNFSELFRSIEEYEKSLEAKQSAVVQES
# modifications: Brachypodium distachyon; BdHPPD Amino Acid Sequence
# B2: BdHPPDm-F372A-02: Brachypodium distachyon HPPD mutant F372A, SEQ ID NO: 48 (protein)
# chain: B1 chain with F368A
# modifications: BdHPPDm-F372A Amino Acid Sequence
# B3: N5HPPDm-F372A-02: Sphingobium sp. N5 HPPD mutant F372A, SEQ ID NO: 174 (protein)
# chain: MAADSENPLGLHGFAFAEFTSPDPAAMARQFEQLGFVPAARRKDRGLTLYRQGRIAFILNAGEGEQASAFRAAHGPSANGMAFNVADAKAAHRHAIQSGATDADTAQSALPGTYAIEGIGDSLLYLVDSDPFADWDEVPGWREASAERGVGLDLLDHLTHNVRRGQMRVWSEFYATLFGFEEQKFFDIKGQATGLFSQAMIAPDHEIRIPLNESQDDNSQIEEFIREYNGEGIQHLALTTPDIYSTVEKLRANGVRLQDTIDTYYDLVDERVPGHGEDLARLRKNRILIDGDVHDEGLLLQIATETMFGPIFFEIIQRKGNEGFGNGNFQVLFESIELDQIRRGVVTVDA
# modifications: N5HPPDm-F372A Amino Acid Sequence
# B4: TaHPPDm-F372A-02: Triticum aestivum HPPD mutant F372A, SEQ ID NO: 42 (protein)
# chain: MPPTPTTPAATGAGAAAAVTPEHARPRRMVRFNPRSDRFHTLSFHHVEFWCADAASAAGRFAFALGAPLAARSDLSTGNSVHASQLLRSGNLAFLFTAPYANGCDAATASLPSFSADAARRFSADHGLAVRSIALRVADAAEAFRASVDGGARPAFSPVDLGRGFGFAEVELYGDVVLRFVSHPDGTDVPFLPGFEGVSNPGAVDYGLTRFDHVVGNVPELASAAAYVAGFTGFHEFAEFTTEDVGTAESGLNSMVLANNSEGVLLPLNEPVHGTKRRSQIQTFLEHHGGPGVQHIAVASSDVLRTLREMRARSAMGGFDFLPPPLPKYYEGVRRIAGDVLSEAQIKECQELGVLVDRDDQGVLLQIATKPVGDRPTLFLEMIQRIGCMEKDERGEEYQKGGCGGFGKGNFSELFKSIEDYEKSLEAKQSAAVQGS
# modifications: TaHPPDm-F372A Amino Acid Sequence
# B5: HvHPPD-02: native Hordeum vulgare HPPD, SEQ ID NO: 51 (protein)
# chain: MPPTPTTPAATGAAAAVTPEHARPHRMVRFNPRSDRFHTLSFHHVEFWCADAASAAGRFAFALGAPLAARSDLSTGNSAHASQLLRSGSLAFLFTAPYANGCDAATASLPSFSADAARRFSADHGIAVRSVALRVADAAEAFRASRRRGARPAFAPVDLGRGFAFAEVELYGDVVLRFVSHPDGTDVPFLPGFEGVTNPDAVDYGLTRFDHVVGNVPELAPAAAYIAGFTGFHEFAEFTAEDVGTTESGLNSVVLANNSEGVLLPLNEPVHGTKRRSQIQTFLEHHGGPGVQHIAVASSDVLRTLRKMRARSAMGGFDFLPPPLPKYYEGVRRLAGDVLSEAQIKECQELGVLVDRDDQGVLLQIFTKPVGDRPTLFLEMIQRIGCMEKDERGEEYQKGGCGGFGKGNFSELFKSIEDYEKSLEAKQSAAVQGS
# modifications: Hordeum vulgare; HvHPPD Amino Acid Sequence
# B6: HvHPPDm-F372A-02: Hordeum vulgare HPPD mutant F372A, SEQ ID NO: 54 (protein)
# chain: B5 chain with F366A
# modifications: HvHPPDm-F372A Amino Acid Sequence
# B7: SiHPPD-02: native Setaria italica HPPD, SEQ ID NO: 57 (protein, listed as Setaria italica)
# chain: MPPTPTPAAAAPGAAAAPAAGDQAAFRLVGHRGFVRVNPRSDRFHTLSFHHVELWCADATSAAGRFSFGLGAPLAARSDLSTGNSAHASLLLRSGSLAFLFTAPYAHGVDAATASLPSFSAPAARSFAADHGLAVRAIGLRVADAEDAFRASVAAGARPAFKPVELGLGFRLAEVELYGDVVLRYVSYPDAEDAPFLPGFENVNNPGALNYGLRRFDHIVGNVPELAPVAAYVAGFTGFHEFAEFTAEDVGTAESGLNSMVLANNSETVLIPLNEPVHGTKRRSQIQTFLDHNGGPGVQHIALASDDVLRTLREMQARSAMGGFEFMAAPPPDYYEGVRRRAGDVLSEAQIKECQELGVLVDRDDQGVLLQIFTKPVGDRQTLFLEIIQRIGCMEKDEQGQEYQKGGCGGFGKGNFSQLFKSIEDYEKSLESKQAAAVQGS
# modifications: SiHPPD Amino Acid Sequence
# System: Arabidopsis thaliana T1 plants
# Experiment: Topramezone tolerance of transgenic Arabidopsis thaliana T1 plants (pesticide damage grade by bleached leaf area, score, resistance evaluation)
# Format: in vivo
# Conditions: HPPDs from different species; number of plants (of 16) in this grade; topramezone 25 g ai/ha (1x), 7 DAT
# Procedure, shortened: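 Eighteen days after sowing, wild-type and HPPD-transgenic T1 Arabidopsis receive a topramezone spray at 1×, 2× or 4× field rate (25–100 g ai/ha) or water. Seven days later each plant is graded by its proportion of bleached leaf area.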
Molecule,Classification and statistics of pesticide damage grade Grade 0,Classification and statistics of pesticide damage grade Grade 1,Classification and statistics of pesticide damage grade Grade 2,Classification and statistics of pesticide damage grade Grade 3
B1,0,0,0,16
B2,16,0,0,0
B3,16,0,0,0
B4,16,0,0,0
B5,0,0,0,16
B6,15,1,0,0
B7,0,0,0,16

# Same assay, conditions: HPPDs from different species; number of plants (of 16) in this grade; topramezone 100 g ai/ha (4x), 7 DAT
Molecule,Classification and statistics of pesticide damage grade Grade 0,Classification and statistics of pesticide damage grade Grade 1,Classification and statistics of pesticide damage grade Grade 2,Classification and statistics of pesticide damage grade Grade 3
B1,0,0,0,16
B2,6,10,0,0
B3,13,3,0,0
B4,15,1,0,0
B5,0,0,0,16
B6,8,8,0,0
B7,0,0,0,16

# Same assay, conditions: HPPDs from different species; score for pesticide damage 0-100; topramezone 25 g ai/ha (1x), 7 DAT
row,Molecule,Scores
1,B1,100
2,B2,0
3,B3,0
4,B4,0
5,B5,100
6,B6,2
7,B7,100

# Same assay, conditions: HPPDs from different species; score for pesticide damage 0-100; topramezone 100 g ai/ha (4x), 7 DAT
row,Molecule,Scores
1,B1,100
2,B2,21
3,B3,6
4,B4,2
5,B5,100
6,B6,17
7,B7,100

# Same assay, conditions: HPPDs from different species; topramezone 25 g ai/ha (1x), 7 DAT
row,Molecule,Resistance evaluation
1,B1,non-resistant (non-resistant plants (scores 68-100))
2,B2,highly resistant (highly resistant plants (scores 0-15))
3,B3,highly resistant (highly resistant plants (scores 0-15))
4,B4,highly resistant (highly resistant plants (scores 0-15))
5,B5,non-resistant (non-resistant plants (scores 68-100))
6,B6,highly resistant (highly resistant plants (scores 0-15))
7,B7,non-resistant (non-resistant plants (scores 68-100))

# Same assay, conditions: HPPDs from different species; topramezone 100 g ai/ha (4x), 7 DAT
row,Molecule,Resistance evaluation
1,B1,non-resistant (non-resistant plants (scores 68-100))
2,B2,moderately resistant (moderately resistant plants (scores 16-33))
3,B3,highly resistant (highly resistant plants (scores 0-15))
4,B4,highly resistant (highly resistant plants (scores 0-15))
5,B5,non-resistant (non-resistant plants (scores 68-100))
6,B6,moderately resistant (moderately resistant plants (scores 16-33))
7,B7,non-resistant (non-resistant plants (scores 68-100))
